Laboratory results: the supplement of paper PMC10065799, “High-throughput profiling of sequence recognition by tyrosine kinases and SH2 domains using bacterial peptide display” (eLife, 2023)

system: AncSZ; experiment: phosphorylation enrichment, bacterial display (enrichment ratio); higher = better substrate or ligand; peptides without Tyr show the background
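Note: 11-residue human phosphosite peptides and single-mutation variants displayed on the E. coli surface, counted by deep sequencing, each peptide's frequency after selection divided by its frequency in the unselected input library; frequency after pTyr selection over input frequency; kinase dosed for 20-30% of maximal phosphorylation in three min.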

Sequence	phosphorylation enrichment
RLPSGYGLAFR [DLK1_Y262_YF]	0.734
KWLEQYTQAIE [LSP1_Y234_Q229K]	1.04
HHFAAYFQQGD [GPI_Y351_R347H]	0.906
EFGRRYGFSCQ [CCDC93_Y209_R213C_YF]	0.914
YPQARYHWLVL [APTX_Y214_K211Q]	0.937
CERFSYFGMKA [SLC15A2_Y60_YF]	1.13
WFKKFYDANFD [MAPRE2_Y158_YF]	0.998
PLQKIYNFNVL [SLC4A1_Y553_T552I_YF]	0.985
IYLADYRIMEG [ALOX12B_Y318]	1.14
PESIMYWKFTT [NTRK3_Y744_R745W]	2.52
QTLEAYIRWNK [SPAST_Y604]	1.2
SGGMDYGMVGG [TNRC6B_Y1382]	0.571
RKKEEYKMALF [F8_Y1990_YF]	0.759
GPIEVYLCPEE [E2F3_Y349]	1.18
TFYQMYDKGLV [IARS2_Y231]	1.38
KAIMTYVFSFF [ACTN4_Y260_S262F_YF]	0.989
ILGRTYFVNHE [NEDD4_Y627_YF]	0.83

Sequence	phosphorylation enrichment
TDEFEYDELIV [TGM1_Y136_YF]	2.29
GYRVYYTPDSR [PTPRF_Y451]	0.794
EEQKKYFNAVK [SCN5A_Y1494_M1498V_YF]	0.832
PSFSEYASVQV [SIRPA_Y496]	1.11
WCKPPYFSCAV [MMS22L_Y28]	1.06
ALAAPYVLYPG [CEFIP_Y1332]	0.769
GENTVYAQVFN [LY9_Y603_M602V]	0.819
GFRPVYSEDEQ [CHST6_Y362_YF]	1.35
IHETTYNSIKK [ACTA1_Y281_M285K]	0.449
GDNNIYVTKII [DLG1_Y349_S347N]	0.806
HCHEGYVLHGA [SVEP1_Y2921_I2922V]	1.28
VKANTYEKYWP [GATM_Y100]	0.785
PLQKTYNHNVL [SLC4A1_Y553_Y555H]	0.657
WRVISYHVVVW [ATP13A2_Y50_G49S]	1.2
VNFGAYINDFK [GLB1_Y488_YF]	0.909
EVKRLYGSVCD [TC2N_Y154]	0.866

target: EPHB2 (UniProt P29323); experiment: as above
Sequence (P29323 whole entry, looked up): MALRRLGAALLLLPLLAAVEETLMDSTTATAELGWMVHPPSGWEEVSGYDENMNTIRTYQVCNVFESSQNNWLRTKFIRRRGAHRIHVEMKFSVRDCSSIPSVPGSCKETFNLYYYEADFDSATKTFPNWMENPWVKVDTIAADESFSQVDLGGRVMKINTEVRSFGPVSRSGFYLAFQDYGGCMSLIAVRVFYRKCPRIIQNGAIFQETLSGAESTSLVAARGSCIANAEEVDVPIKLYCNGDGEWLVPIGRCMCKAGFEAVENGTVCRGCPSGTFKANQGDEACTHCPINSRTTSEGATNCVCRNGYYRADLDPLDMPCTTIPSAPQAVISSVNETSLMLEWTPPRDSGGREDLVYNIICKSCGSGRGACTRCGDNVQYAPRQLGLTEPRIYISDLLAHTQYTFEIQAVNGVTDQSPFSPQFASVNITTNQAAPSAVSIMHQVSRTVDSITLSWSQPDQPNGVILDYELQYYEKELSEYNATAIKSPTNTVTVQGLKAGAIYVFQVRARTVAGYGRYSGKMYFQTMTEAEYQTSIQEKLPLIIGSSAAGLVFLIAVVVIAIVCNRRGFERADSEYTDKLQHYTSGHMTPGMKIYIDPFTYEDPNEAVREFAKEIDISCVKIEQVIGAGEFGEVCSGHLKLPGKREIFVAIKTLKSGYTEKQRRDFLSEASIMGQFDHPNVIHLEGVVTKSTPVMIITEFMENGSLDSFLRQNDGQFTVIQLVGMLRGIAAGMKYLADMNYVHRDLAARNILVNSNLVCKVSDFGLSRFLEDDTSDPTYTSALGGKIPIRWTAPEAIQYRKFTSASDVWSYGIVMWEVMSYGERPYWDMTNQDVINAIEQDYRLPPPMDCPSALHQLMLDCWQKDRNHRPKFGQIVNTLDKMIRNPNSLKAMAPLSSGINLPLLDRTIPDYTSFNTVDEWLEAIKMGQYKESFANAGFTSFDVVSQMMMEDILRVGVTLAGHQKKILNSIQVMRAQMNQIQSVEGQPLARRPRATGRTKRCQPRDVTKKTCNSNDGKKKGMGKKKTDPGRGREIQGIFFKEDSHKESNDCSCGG

Sequence	phosphorylation enrichment
RLPSGYGLAFR [DLK1_Y262_YF]	0.526
KWLEQYTQAIE [LSP1_Y234_Q229K]	0.683
HHFAAYFQQGD [GPI_Y351_R347H]	0.602
EFGRRYGFSCQ [CCDC93_Y209_R213C_YF]	0.504
YPQARYHWLVL [APTX_Y214_K211Q]	0.586
CERFSYFGMKA [SLC15A2_Y60_YF]	0.745
WFKKFYDANFD [MAPRE2_Y158_YF]	0.374
PLQKIYNFNVL [SLC4A1_Y553_T552I_YF]	0.84
IYLADYRIMEG [ALOX12B_Y318]	1.07
PESIMYWKFTT [NTRK3_Y744_R745W]	1.22
QTLEAYIRWNK [SPAST_Y604]	0.588
SGGMDYGMVGG [TNRC6B_Y1382]	0.806
RKKEEYKMALF [F8_Y1990_YF]	0.738
GPIEVYLCPEE [E2F3_Y349]	0.533
TFYQMYDKGLV [IARS2_Y231]	3.66
KAIMTYVFSFF [ACTN4_Y260_S262F_YF]	0.461
ILGRTYFVNHE [NEDD4_Y627_YF]	0.398

Sequence	phosphorylation enrichment
TDEFEYDELIV [TGM1_Y136_YF]	2.23
GYRVYYTPDSR [PTPRF_Y451]	2.15
EEQKKYFNAVK [SCN5A_Y1494_M1498V_YF]	0.566
PSFSEYASVQV [SIRPA_Y496]	8.42
WCKPPYFSCAV [MMS22L_Y28]	0.562
ALAAPYVLYPG [CEFIP_Y1332]	0.488
GENTVYAQVFN [LY9_Y603_M602V]	1.23
GFRPVYSEDEQ [CHST6_Y362_YF]	0.699
IHETTYNSIKK [ACTA1_Y281_M285K]	0.403
GDNNIYVTKII [DLG1_Y349_S347N]	0.556
HCHEGYVLHGA [SVEP1_Y2921_I2922V]	0.807
VKANTYEKYWP [GATM_Y100]	0.825
PLQKTYNHNVL [SLC4A1_Y553_Y555H]	0.591
WRVISYHVVVW [ATP13A2_Y50_G49S]	0.61
VNFGAYINDFK [GLB1_Y488_YF]	0.568
EVKRLYGSVCD [TC2N_Y154]	0.585

target: FGFR3 (UniProt P22607); experiment: as above
Sequence (P22607 whole entry, looked up): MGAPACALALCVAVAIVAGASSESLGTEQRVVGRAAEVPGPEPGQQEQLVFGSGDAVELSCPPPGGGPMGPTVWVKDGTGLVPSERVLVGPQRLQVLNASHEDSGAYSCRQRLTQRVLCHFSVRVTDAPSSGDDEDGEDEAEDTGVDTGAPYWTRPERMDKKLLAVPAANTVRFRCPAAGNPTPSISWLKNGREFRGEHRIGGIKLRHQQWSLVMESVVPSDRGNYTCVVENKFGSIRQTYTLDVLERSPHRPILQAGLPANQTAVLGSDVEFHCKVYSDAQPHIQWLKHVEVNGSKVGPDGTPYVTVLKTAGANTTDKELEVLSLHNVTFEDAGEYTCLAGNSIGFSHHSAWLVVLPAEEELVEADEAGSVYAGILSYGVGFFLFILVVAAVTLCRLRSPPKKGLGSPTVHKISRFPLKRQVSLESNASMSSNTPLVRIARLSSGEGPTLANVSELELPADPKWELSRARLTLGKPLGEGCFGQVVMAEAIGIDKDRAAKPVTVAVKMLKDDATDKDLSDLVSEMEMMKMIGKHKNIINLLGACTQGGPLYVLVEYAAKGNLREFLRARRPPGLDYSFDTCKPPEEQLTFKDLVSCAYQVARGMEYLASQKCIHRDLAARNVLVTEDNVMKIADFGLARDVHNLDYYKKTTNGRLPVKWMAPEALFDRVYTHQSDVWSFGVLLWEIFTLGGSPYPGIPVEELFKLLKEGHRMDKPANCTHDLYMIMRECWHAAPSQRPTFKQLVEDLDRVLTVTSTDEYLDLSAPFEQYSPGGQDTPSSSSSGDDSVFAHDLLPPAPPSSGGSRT

Sequence	phosphorylation enrichment
RLPSGYGLAFR [DLK1_Y262_YF]	0.595
KWLEQYTQAIE [LSP1_Y234_Q229K]	0.573
HHFAAYFQQGD [GPI_Y351_R347H]	1.19
EFGRRYGFSCQ [CCDC93_Y209_R213C_YF]	0.62
YPQARYHWLVL [APTX_Y214_K211Q]	1.48
CERFSYFGMKA [SLC15A2_Y60_YF]	0.938
WFKKFYDANFD [MAPRE2_Y158_YF]	0.6
PLQKIYNFNVL [SLC4A1_Y553_T552I_YF]	0.684
IYLADYRIMEG [ALOX12B_Y318]	2.46
PESIMYWKFTT [NTRK3_Y744_R745W]	1.55
QTLEAYIRWNK [SPAST_Y604]	0.935
SGGMDYGMVGG [TNRC6B_Y1382]	0.494
RKKEEYKMALF [F8_Y1990_YF]	0.607
GPIEVYLCPEE [E2F3_Y349]	0.743
TFYQMYDKGLV [IARS2_Y231]	1.25
KAIMTYVFSFF [ACTN4_Y260_S262F_YF]	0.725
ILGRTYFVNHE [NEDD4_Y627_YF]	0.605

Sequence	phosphorylation enrichment
TDEFEYDELIV [TGM1_Y136_YF]	2.03
GYRVYYTPDSR [PTPRF_Y451]	0.675
EEQKKYFNAVK [SCN5A_Y1494_M1498V_YF]	0.567
PSFSEYASVQV [SIRPA_Y496]	1.05
WCKPPYFSCAV [MMS22L_Y28]	0.656
ALAAPYVLYPG [CEFIP_Y1332]	2.55
GENTVYAQVFN [LY9_Y603_M602V]	0.616
GFRPVYSEDEQ [CHST6_Y362_YF]	0.835
IHETTYNSIKK [ACTA1_Y281_M285K]	0.482
GDNNIYVTKII [DLG1_Y349_S347N]	0.61
HCHEGYVLHGA [SVEP1_Y2921_I2922V]	1.13
VKANTYEKYWP [GATM_Y100]	0.471
PLQKTYNHNVL [SLC4A1_Y553_Y555H]	0.524
WRVISYHVVVW [ATP13A2_Y50_G49S]	0.826
VNFGAYINDFK [GLB1_Y488_YF]	0.621
EVKRLYGSVCD [TC2N_Y154]	0.703

system: Fer (mouse); experiment: as above

Sequence	phosphorylation enrichment
RLPSGYGLAFR [DLK1_Y262_YF]	0.49
KWLEQYTQAIE [LSP1_Y234_Q229K]	0.442
HHFAAYFQQGD [GPI_Y351_R347H]	0.435
EFGRRYGFSCQ [CCDC93_Y209_R213C_YF]	0.534
YPQARYHWLVL [APTX_Y214_K211Q]	0.612
CERFSYFGMKA [SLC15A2_Y60_YF]	0.467
WFKKFYDANFD [MAPRE2_Y158_YF]	0.373
PLQKIYNFNVL [SLC4A1_Y553_T552I_YF]	0.795
IYLADYRIMEG [ALOX12B_Y318]	0.48
PESIMYWKFTT [NTRK3_Y744_R745W]	1.53
QTLEAYIRWNK [SPAST_Y604]	0.62
SGGMDYGMVGG [TNRC6B_Y1382]	0.389
RKKEEYKMALF [F8_Y1990_YF]	0.494
GPIEVYLCPEE [E2F3_Y349]	0.458
TFYQMYDKGLV [IARS2_Y231]	1.33
KAIMTYVFSFF [ACTN4_Y260_S262F_YF]	0.454
ILGRTYFVNHE [NEDD4_Y627_YF]	0.429

Sequence	phosphorylation enrichment
TDEFEYDELIV [TGM1_Y136_YF]	0.61
GYRVYYTPDSR [PTPRF_Y451]	0.477
EEQKKYFNAVK [SCN5A_Y1494_M1498V_YF]	0.414
PSFSEYASVQV [SIRPA_Y496]	3.49
WCKPPYFSCAV [MMS22L_Y28]	0.474
ALAAPYVLYPG [CEFIP_Y1332]	0.54
GENTVYAQVFN [LY9_Y603_M602V]	7
GFRPVYSEDEQ [CHST6_Y362_YF]	0.617
IHETTYNSIKK [ACTA1_Y281_M285K]	0.35
GDNNIYVTKII [DLG1_Y349_S347N]	0.595
HCHEGYVLHGA [SVEP1_Y2921_I2922V]	0.911
VKANTYEKYWP [GATM_Y100]	0.506
PLQKTYNHNVL [SLC4A1_Y553_Y555H]	0.659
WRVISYHVVVW [ATP13A2_Y50_G49S]	0.547
VNFGAYINDFK [GLB1_Y488_YF]	0.393
EVKRLYGSVCD [TC2N_Y154]	0.543
